The source of these data is patent US20220251194A1 (Merck Sharp & Dohme, published 2022).

The target in assay [1] is T1, recombinant human or cyno PD-1 (immobilized onto CM5 chip, Example 1) (human or cyno ( which was …, UniProt Q15116 25-167, limits assumed)).
T1 construct: also called antigen
In words: SPR (Biacore T200), PD-1 immobilized on CM5 chip, Fab as analyte; lower end of the printed range 2.80-2.90. As for the experimental part: (§1) Immobilization of recombinant human or cyno PD-1 onto CM5 chip: A CM5 sensor chip was activated in FC2 by 7-min. injection (10 μl/min.) of freshly prepared 1:1 50 mM NHS: 200 mM EDC. PD-1 at a concentration of 0.2 μg/ml in 10 mM sodium acetate buffer pH 5.0 was injected onto the activated chip at 5 μl/min. (HBS-EP running buffer: 10 mM HEPES, 150 mM NaCl, 3.4 mM EDTA, 0.005% surfactant P20, pH 7.4) for 120 seconds. The remaining active coupling sites were blocked with 7 min. injection of 1M ethanolamine at 10 μl/min.
(§2) Binding kinetics measurement: Various concentrations of the Fabs were injected with a flow rate of 30 μl/min for 180 seconds(s) during the association phase. The dissociation of bound antibody was monitored by flowing HBS-EP buffer over the chip surface for 600 seconds. At the end of each cycle, the sensor surfaces were regenerated by injecting regeneration buffer (10 mM glycine buffer with pH 1.7) for 180 seconds. After sensograms were corrected for signals from a reference flow, kinetics were calculated with BIACORE T 200 evaluation software ver.1.0 (Biacore, GE, USA).
In general terms: Surface plasmon resonance follows binding to a sensor surface in real time, without labels.

The target of assay [2] is T1, recombinant human or cyno PD-1 …. In words: SPR (Biacore), Fab against PD-1. Here is the method:
as §1, §2

The target of assay [3] is T2, human PD1 on PathHunter U2OS dimer cells (human, UniProt Q15116 25-288).
T2 construct: whole, on cells; On Human PD1/LAG3 dimer cell Clone #9 (Lot 56AUA) and Human PD1/TIGIT dimer cell Clone #5 (Lot 14BAU); also called hPD1; not shown: beta-galactosidase fragment (ProLink or Enzyme Acceptor)
In words: PathHunter dimerization assay, U2OS cells co-expressing human PD1 and LAG3; the signal needs both targets to be bound on the same cell.

For another assay, the target named is T3, human LAG-3 (60AXE) (human, UniProt P18627 23-450, limits assumed).
T3 construct: Lot 60AXE is not described further
T3 sequence (looked up): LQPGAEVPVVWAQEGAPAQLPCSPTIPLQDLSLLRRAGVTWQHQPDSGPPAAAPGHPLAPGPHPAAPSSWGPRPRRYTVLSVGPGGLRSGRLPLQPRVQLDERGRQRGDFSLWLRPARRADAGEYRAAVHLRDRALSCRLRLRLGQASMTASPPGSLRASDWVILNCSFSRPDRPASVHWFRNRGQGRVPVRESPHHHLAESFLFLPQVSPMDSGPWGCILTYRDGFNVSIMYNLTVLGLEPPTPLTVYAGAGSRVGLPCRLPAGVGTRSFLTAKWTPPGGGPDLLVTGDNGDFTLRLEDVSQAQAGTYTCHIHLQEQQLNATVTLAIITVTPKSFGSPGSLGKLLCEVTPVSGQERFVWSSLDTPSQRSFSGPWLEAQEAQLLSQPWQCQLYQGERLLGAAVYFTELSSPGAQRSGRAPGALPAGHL
In words: SPR (Biacore T200 or 4000), antibody captured via anti-human Fc, antigen as analyte. As for the experimental part:
(§3) Binding affinities were measured using a Biacore T200 or Biacore 4000 biosensor (GE Healthcare, Chicago, Ill.). The following running buffer, 10 mM HEPES, 150 mM NaCl, 0.05% v/v Surfactant P20, 3 mM EDTA (GE Healthcare, BR100669, Chicago, Ill.), was used for immobilization, sample dilution and data collection. All experiments were performed at 25° C. Antigen binding to antibodies captured via an anti-human Fc antibody was measured using a Series S Sensor Chip CM5 (GE Healthcare, 29149603, Chicago, Ill.). An anti-human Fc antibody was immobilized on all surfaces of the chip according to the instructions in the Human Antibody Capture Kit (GE Healthcare, BR100839, Chicago, Ill.) and the Amine Coupling Kit (GE Healthcare, BR100633, Chicago, Ill.). […] After the antigen injections the dissociation of the interaction was monitored for 15 minutes. Between binding cycles the antibody and antigen were removed from the chip with a 30 second injection of 3 M MgCl₂.
(§4) The data were processed and fit using Biacore T200 Evaluation Software version 2.0 or Biacore 4000 Evaluation Software version 1.1 (GE Healthcare, Chicago, Ill.). The data were “double referenced” by subtracting the response from a negative control flowcell and subtracting the response from a buffer injection or the average response from two buffer injections. The data were then fit with the ‘1:1 Binding’ model to determine the association rate constant, kₐ (M⁻¹s⁻¹, where “M” equals molar and “s” equals seconds) and the dissociation rate constant, kd (s⁻¹). These rate constants were used to calculate the equilibrium dissociation constant, KD (M)=[…].

In a further assay the target is T4, human TIGIT (94AGV) (human, UniProt Q495A1 22-141, limits assumed).
T4 construct: Lot 94AGV is not described further
T4 sequence (looked up): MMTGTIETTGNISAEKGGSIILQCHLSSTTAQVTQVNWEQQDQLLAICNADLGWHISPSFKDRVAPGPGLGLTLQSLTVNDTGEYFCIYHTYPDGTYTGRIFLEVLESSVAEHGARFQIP
The assay is described as above. As for the experimental part: as §3, §4

Assay [4] has as its target T5, Human PD1 (50AFR), [VEGF leader]-Sino-Bio-PD-1_H-[His9G] (human, UniProt Q15116 25-167).
T5 construct: Expressed with a VEGF leader; also called PD-1-His (50AFR)
The description is as above. Here is the method:
as §3, §4

As a reminder, the Kd is a measure of binding affinity in units of concentration.

T1 sequence (Q15116 25-167 limits assumed): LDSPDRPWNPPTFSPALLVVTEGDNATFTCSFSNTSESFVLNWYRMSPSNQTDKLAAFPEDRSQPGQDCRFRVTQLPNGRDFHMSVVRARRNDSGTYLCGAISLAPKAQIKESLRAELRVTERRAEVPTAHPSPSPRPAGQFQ
T2 sequence (Q15116 25-288): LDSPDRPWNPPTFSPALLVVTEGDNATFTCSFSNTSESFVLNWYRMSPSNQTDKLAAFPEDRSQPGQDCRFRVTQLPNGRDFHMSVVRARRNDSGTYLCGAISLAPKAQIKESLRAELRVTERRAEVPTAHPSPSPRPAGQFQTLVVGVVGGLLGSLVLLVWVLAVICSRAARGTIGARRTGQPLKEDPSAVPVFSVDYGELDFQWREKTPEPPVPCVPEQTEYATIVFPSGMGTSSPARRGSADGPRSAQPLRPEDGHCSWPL
T5 sequence (Q15116 25-167): as the sequence (Q15116 25-167 limits assumed) above

B1: Fab001 (humanized 08A Fab with S61N glycosylation site correction) (Fab, V domains shown)
VH: EVQLVQSGAEVKKPGASVKVSCKASGYTFTSYYLYWVRQAPGQGLEWIGGVNPSNGGTNFNEKFKSRVTLTVDTSISTAYMELSRLRSDDTAVYYCTRRDSNYDGGFDYWGQGTTVTVSS
VL: DIVMTQTPLSLSVTPGQPASISCRASKSVSTSGFSYLHWYLQKPGQPPQLLIFLASNLESGVPDRFSGSGSGTDFTLKISRVEAEDVGVYYCQHSWELPLTFGQGTKLEIKR
notes: Fab with IgG4 CH1 and kappa light chain
With B1, the equilibrium dissociation constant (Kd) in assay [1] is 0.28 to 0.29 nM.

B2: Fab 004 (Fab, V domains shown)
VH: EVQLVQSGAEVKKPGASVKVSCKASGYTFTSYYLYWVRQAPGQGLEWIGGVNPSNGGTNFNEKFKSRVTLTVDTSISTAYMELSRLRSDDTAVYYCTRRLSHYDGGFDYWGQGTTVTVSS
VL: DIVMTQTPLSLSVTPGQPASISCRASKSVSTSGFSYLHWYLQKPGQPPQLLIFLASNLESGVPDRFSGSGSGTDFTLKISRVEAEDVGVYYCQHSWELPLTFGQGTKLEIKR
notes: also called 3G9; H3G9
Take B2: in assay [2], the “fold improvement in KD over 08A” value was found to be 2 fold.

B3: Humanized x [LAG3_H][TIGIT_H] BsAb (22D2 VH6 C-term 31C6 scFv VL-VH / VL3 Y31W) IgG1 L234A L235A D265S / Kappa (Lot 80BCK) (bispecific antibody)
heavy: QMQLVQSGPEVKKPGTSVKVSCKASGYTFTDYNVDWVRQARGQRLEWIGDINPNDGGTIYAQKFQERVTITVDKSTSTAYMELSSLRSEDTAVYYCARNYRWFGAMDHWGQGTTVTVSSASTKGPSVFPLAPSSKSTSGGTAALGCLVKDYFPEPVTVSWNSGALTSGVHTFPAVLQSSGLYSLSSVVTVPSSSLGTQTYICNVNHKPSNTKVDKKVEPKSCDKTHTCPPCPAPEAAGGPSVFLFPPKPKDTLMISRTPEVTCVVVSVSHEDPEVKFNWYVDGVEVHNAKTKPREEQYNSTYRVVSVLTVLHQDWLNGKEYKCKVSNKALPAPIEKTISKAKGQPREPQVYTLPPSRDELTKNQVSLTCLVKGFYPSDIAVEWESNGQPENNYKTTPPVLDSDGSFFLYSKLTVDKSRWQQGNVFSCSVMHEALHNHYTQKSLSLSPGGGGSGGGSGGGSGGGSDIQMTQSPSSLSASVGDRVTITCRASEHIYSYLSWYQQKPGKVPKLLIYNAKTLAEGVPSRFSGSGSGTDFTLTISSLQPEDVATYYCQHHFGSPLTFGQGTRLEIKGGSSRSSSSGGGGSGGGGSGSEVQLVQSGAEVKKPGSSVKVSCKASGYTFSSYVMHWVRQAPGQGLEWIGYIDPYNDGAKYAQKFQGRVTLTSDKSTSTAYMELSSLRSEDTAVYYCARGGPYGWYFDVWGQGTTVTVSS
light: DIVMTQTPLSLSVTPGQPASISCKASQSLDWEGDSDMNWYLQKPGQPPQLLIYGASNLESGVPDRFSGSGSGTDFTLKISRVEAEDVGVYYCQQSTEDPRTFGGGTKVEIKRTVAAPSVFIFPPSDEQLKSGTASVVCLLNNFYPREAKVQWKVDNALQSGNSQESVTEQDSKDSTYSLSSTLTLSKADYEKHKVYACEVTHQGLSSPVTKSFNRGEC
notes: Anti-LAG3 IgG1 with an anti-TIGIT scFv at the C-terminus of the heavy chain; also called 80BCK (control); Hz x Hu [LAG3]; [TIGIT]; BsAb (Y31W)
Consider B3, for which the binding result in assay [3] was “no binding”.

B4: anti-PD-1/LAG-3/TIGIT trispecific antibody (TsAbY31W) (Lot 30BCM) (other)
heavy 1: EVQLVQSGAEVKKPGASVKVSCKASGYTFTSYYLYWVRQAPGQGLEWIGGVNPSNAGTNFNEKFKSRVTLTVDTSISTAYMELSRLRSDDTAVYYCTRRLSHYDGGFDYWGQGTTVTVSSASTKGPSVFPLAPSSKSTSGGTAALGCEVTDYFPEPVTVSWNSGALTSGVHTFPAVLESSGLYSLLSVVTVPSSSLGTQTYICNVNHKPSNTKVDKKVEPKSCDKTHTCPPCPAPEAAGGPSVFLFPPKPKDTLMISRTPEVTCVVVSVSHEDPEVKFNWYVDGVEVHNAKTKPREEQYNSTYRVVSVLTVLHQDWLNGKEYKCKVSNKALPAPIEKTISKAKGQPREPQVYVYPPSRDELTKNQVSLTCLVKGFYPSDIAVEWESNGQPENNYKTTPPVLDSDGSFALVSKLTVDKSRWQQGNVFSCSVMHEALHNHYTQKSLSLSPGGGGSGGGSGGGSGGGSDIQMTQSPSSLSASVGDRVTITCRASEHIYSYLSWYQQKPGKVPKLLIYNAKTLAEGVPSRFSGSGSGTDFTLTISSLQPEDVATYYCQHHFGSPLTFGQGTRLEIKGGSSRSSSSGGGGSGGGGSGSEVQLVQSGAEVKKPGSSVKVSCKASGYTFSSYVMHWVRQAPGQGLEWIGYIDPYNDGAKYAQKFQGRVTLTSDKSTSTAYMELSSLRSEDTAVYYCARGGPYGWYFDVWGQGTTVTVSS
light 1: DIVMTQTPLSLSVTPGQPASISCRASKSVSTSGFSYLHWYLQKPGQPPQLLIFLSKYRSSGVPDRFSGSGSGTDFTLKISRVEAEDVGVYYCSQAYHLPLTFGQGTKLEIKRTVAAPSVFIFPPSDERLKSGTASVVCLLNNFYPREAKVQWKVDNALQSGNSQESVTEQDSKDSTYSLSSRLTLSKADYEKHKVYACEVTHQGLSSPVTKSFNRGEC
heavy 2: QMQLVQSGPEVKKPGTSVKVSCKASGYTFTDYNVDWVRQARGQRLEWIGDINPNDGGTIYAQKFQERVTITVDKSTSTAYMELSSLRSEDTAVYYCARNYRWFGAMDHWGQGTTVTVSSASTKGPSVFPLAPSSKSTSGGTAALGCLVKDYFPEPVTVSWNSGALTSGVHTFPAVLQSSGLYKLSSVVTVPSSSLGTQTYICNVNHKPSNTKVDKKVEPKSCDKTHTCPPCPAPEAAGGPSVFLFPPKPKDTLMISRTPEVTCVVVSVSHEDPEVKFNWYVDGVEVHNAKTKPREEQYNSTYRVVSVLTVLHQDWLNGKEYKCKVSNKALPAPIEKTISKAKGQPREPQVYVLPPSRDELTKNQVSLLCLVKGFYPSDIAVEWESNGQPENNYLTWPPVLDSDGSFFLYSKLTVDKSRWQQGNVFSCSVMHEALHNHYTQKSLSLSPGGGGSGGGSGGGSGGGSDIQMTQSPSSLSASVGDRVTITCRASEHIYSYLSWYQQKPGKVPKLLIYNAKTLAEGVPSRFSGSGSGTDFTLTISSLQPEDVATYYCQHHFGSPLTFGQGTRLEIKGGSSRSSSSGGGGSGGGGSGSEVQLVQSGAEVKKPGSSVKVSCKASGYTFSSYVMHWVRQAPGQGLEWIGYIDPYNDGAKYAQKFQGRVTLTSDKSTSTAYMELSSLRSEDTAVYYCARGGPYGWYFDVWGQGTTVTVSS
light 2: DIVMTQTPLSLSVTPGQPASISCKASQSLDWEGDSDMNWYLQKPGQPPQLLIYGASNLESGVPDRFSGSGSGTDFTLKISRVEAEDVGVYYCQQSTEDPRTFGGGTKVEIKRTVAAPSVFIFPPSDEELKSGTATVVCLLNNFYPREAKVQWKVDNALQSGNSQESVTEQDSKDSTYSLSSYLELSKADYEKHKVYACEVTHQGLSSPVTKSFNRGEC
notes: Trispecific heterodimeric IgG1 / kappa; also called Y31W mutant; Hz x Hu [PD-1]; [TIGIT]; [LAG3]; TsAb (Y31W)
With B4, the Kd in the assay with human LAG-3 (60AXE) turned out to be 0.023 nM; with human TIGIT (94AGV), 1.09 nM; in assay [4], 0.289 nM.
